This is an account of results in publication PMC6215714 (Nature chemical biology, 2015).

In this test the target is Growth arrest specific 6 (Gas6), soluble, His-tagged (Homo sapiens, UniProt Q14393). Put plainly: flow cytometry on cells. For orientation: Flow cytometry measures light scatter and fluorescence of single cells or particles in a stream.
Chain of Growth arrest specific 6 (Gas6), soluble, His-tagged (Q14393 31-678): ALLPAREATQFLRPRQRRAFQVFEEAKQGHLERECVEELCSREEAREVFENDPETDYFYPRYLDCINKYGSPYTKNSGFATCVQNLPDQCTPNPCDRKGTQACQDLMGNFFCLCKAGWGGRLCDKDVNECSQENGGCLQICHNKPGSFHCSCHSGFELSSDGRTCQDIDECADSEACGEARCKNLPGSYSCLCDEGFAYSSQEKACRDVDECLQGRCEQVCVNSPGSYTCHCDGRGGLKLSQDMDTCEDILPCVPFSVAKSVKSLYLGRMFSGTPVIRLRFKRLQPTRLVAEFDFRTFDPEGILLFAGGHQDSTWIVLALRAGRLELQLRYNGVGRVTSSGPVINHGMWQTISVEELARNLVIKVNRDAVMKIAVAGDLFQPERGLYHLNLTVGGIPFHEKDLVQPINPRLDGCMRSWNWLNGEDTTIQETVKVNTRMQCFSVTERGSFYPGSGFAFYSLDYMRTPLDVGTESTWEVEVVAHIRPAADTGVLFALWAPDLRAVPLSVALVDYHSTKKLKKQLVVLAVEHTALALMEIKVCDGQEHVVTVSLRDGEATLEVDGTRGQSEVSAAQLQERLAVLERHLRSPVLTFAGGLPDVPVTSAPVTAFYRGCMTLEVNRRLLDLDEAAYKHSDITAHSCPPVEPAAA

B1: anti-Gas6 scFv identified by μSCALE from a naïve yeast-displayed scFv library (scFv, V domains shown)
VH: EVQLVESGGGLVQPGGSLRLSCAASGFNISYGGSYIHWVRQAPGKGLEWVASIYPGGGYTYYADSVKGRFTISADTSKNTAYLQMNSLRAEDTAVYYCARTVRGSKKPYFSGWAMDYWGQGTLVTVSS
VL: DIQMTQSPSSLSASVGDRVTITCRASQYGGYGGVAWYQQKPGKAPKLLIYYASSLYSGVPSRFSGSRSGTDFTLTISSLQPEDFATYYCQQWWGYPITFGQGTKVEIK
On to B1, for which the affinity, expressed as Kd, was 130 nM.
